For 42 substances, ratio to parent results are on record in paper PMC6056499, “A systematic dissection of sequence elements determining β-Klotho and FGF interaction and signaling” (Scientific Reports, 2018).

Sequence of mature human FGF21 polypeptide fused with the human Fc fragment at the N-terminus (Fc-FGF21), wild type (from UniProt Q9NSA1) 171P-R (Q9NSA1 29-209, change not shown): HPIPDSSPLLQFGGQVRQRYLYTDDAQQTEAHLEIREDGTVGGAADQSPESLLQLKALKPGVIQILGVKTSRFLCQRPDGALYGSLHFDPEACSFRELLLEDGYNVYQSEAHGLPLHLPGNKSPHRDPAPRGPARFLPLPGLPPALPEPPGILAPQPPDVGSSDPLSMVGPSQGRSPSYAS
Sequence of mature human FGF21 polypeptide fused with the human Fc fragment at the N-terminus (Fc-FGF21), wild type (from UniProt Q9NSA1) 166P-R (Q9NSA1 29-209, change not shown): as above
Sequence of mature human FGF21 polypeptide fused with the human Fc fragment at the N-terminus (Fc-FGF21), wild type (from UniProt Q9NSA1) 177P-A (Q9NSA1 29-209, change not shown): as above
Sequence of mature human FGF21 polypeptide fused with the human Fc fragment at the N-terminus (Fc-FGF21), wild type (from UniProt Q9NSA1) 189G-R (Q9NSA1 29-209, change not shown): as above
Sequence of mature human FGF21 polypeptide fused with the human Fc fragment at the N-terminus (Fc-FGF21), wild type (from UniProt Q9NSA1) 198G-R (Q9NSA1 29-209, change not shown): as above
Sequence of mature human FGF21 polypeptide fused with the human Fc fragment at the N-terminus (Fc-FGF21), wild type (from UniProt Q9NSA1) 164F-A (Q9NSA1 29-209, change not shown): as above
Sequence of mature human FGF21 polypeptide fused with the human Fc fragment at the N-terminus (Fc-FGF21), wild type (from UniProt Q9NSA1) 170L-A (Q9NSA1 29-209, change not shown): as above
Sequence of mature human FGF21 polypeptide fused with the human Fc fragment at the N-terminus (Fc-FGF21), wild type (from UniProt Q9NSA1) 202G-R (Q9NSA1 29-209, change not shown): as above
Sequence of mature human FGF21 polypeptide fused with the human Fc fragment at the N-terminus (Fc-FGF21), wild type (from UniProt Q9NSA1) 178P-R (Q9NSA1 29-209, change not shown): as above
Sequence of mature human FGF21 polypeptide fused with the human Fc fragment at the N-terminus (Fc-FGF21), wild type (from UniProt Q9NSA1) 179G-A (Q9NSA1 29-209, change not shown): as above
Sequence of mature human FGF21 polypeptide fused with the human Fc fragment at the N-terminus (Fc-FGF21), wild type (from UniProt Q9NSA1) 174P-R (Q9NSA1 29-209, change not shown): as above
Sequence of mature human FGF21 polypeptide fused with the human Fc fragment at the N-terminus (Fc-FGF21), wild type (from UniProt Q9NSA1) 172P-A (Q9NSA1 29-209, change not shown): as above
Sequence of mature human FGF21 polypeptide fused with the human Fc fragment at the N-terminus (Fc-FGF21), wild type (from UniProt Q9NSA1) 199P-A (Q9NSA1 29-209, change not shown): as above
Sequence of mature human FGF21 polypeptide fused with the human Fc fragment at the N-terminus (Fc-FGF21), wild type (from UniProt Q9NSA1) 167L-A (Q9NSA1 29-209, change not shown): as above
Sequence of mature human FGF21 polypeptide fused with the human Fc fragment at the N-terminus (Fc-FGF21), wild type (from UniProt Q9NSA1) 184Q-R (Q9NSA1 29-209, change not shown): as above
Sequence of mature human FGF21 polypeptide fused with the human Fc fragment at the N-terminus (Fc-FGF21), wild type (from UniProt Q9NSA1) 200S-R (Q9NSA1 29-209, change not shown): as above
Sequence of mature human FGF21 polypeptide fused with the human Fc fragment at the N-terminus (Fc-FGF21), wild type (from UniProt Q9NSA1) 173A-R (Q9NSA1 29-209, change not shown): as above
Sequence of mature human FGF21 polypeptide fused with the human Fc fragment at the N-terminus (Fc-FGF21), wild type (from UniProt Q9NSA1) 198G-A (Q9NSA1 29-209, change not shown): as above
Sequence of mature human FGF21 polypeptide fused with the human Fc fragment at the N-terminus (Fc-FGF21), wild type (from UniProt Q9NSA1) 181L-A (Q9NSA1 29-209, change not shown): as above
Sequence of mature human FGF21 polypeptide fused with the human Fc fragment at the N-terminus (Fc-FGF21), wild type (from UniProt Q9NSA1) 190S-A (Q9NSA1 29-209, change not shown): as above

For the test, the target named is human β-Klotho extracellular domain (aa1–992) fused with a 6 × His tag at the C-terminus (UniProt Q86Z14). As to the kind of experiment: solid-phase binding assay. The note with it: parent: est. 1.0; read off a plot.
Sequence of human β-Klotho extracellular domain (aa1–992) fused with a 6 × His tag at the C-terminus (Q86Z14 53-992): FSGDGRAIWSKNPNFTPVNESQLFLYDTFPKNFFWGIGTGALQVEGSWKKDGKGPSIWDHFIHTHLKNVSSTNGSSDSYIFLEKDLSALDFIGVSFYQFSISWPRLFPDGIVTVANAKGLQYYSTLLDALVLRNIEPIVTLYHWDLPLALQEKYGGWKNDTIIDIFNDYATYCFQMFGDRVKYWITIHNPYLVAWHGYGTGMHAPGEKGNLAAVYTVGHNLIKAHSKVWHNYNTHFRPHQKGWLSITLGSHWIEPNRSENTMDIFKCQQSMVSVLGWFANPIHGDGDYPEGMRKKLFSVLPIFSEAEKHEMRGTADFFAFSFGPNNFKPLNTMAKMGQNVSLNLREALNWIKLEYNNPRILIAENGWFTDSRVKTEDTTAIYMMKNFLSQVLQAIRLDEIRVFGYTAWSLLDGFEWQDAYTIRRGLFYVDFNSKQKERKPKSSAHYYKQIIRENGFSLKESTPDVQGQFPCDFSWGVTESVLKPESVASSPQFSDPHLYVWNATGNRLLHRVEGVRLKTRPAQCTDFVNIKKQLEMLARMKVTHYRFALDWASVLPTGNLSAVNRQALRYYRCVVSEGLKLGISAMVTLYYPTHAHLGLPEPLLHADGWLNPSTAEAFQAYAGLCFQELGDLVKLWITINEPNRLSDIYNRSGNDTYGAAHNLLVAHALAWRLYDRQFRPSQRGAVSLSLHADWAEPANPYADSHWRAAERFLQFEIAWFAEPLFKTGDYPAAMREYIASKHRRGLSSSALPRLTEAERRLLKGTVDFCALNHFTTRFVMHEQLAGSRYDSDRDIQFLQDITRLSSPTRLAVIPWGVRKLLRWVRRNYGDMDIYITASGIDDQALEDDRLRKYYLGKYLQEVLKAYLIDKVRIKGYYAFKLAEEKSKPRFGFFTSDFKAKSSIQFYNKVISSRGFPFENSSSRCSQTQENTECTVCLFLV
With “mature human FGF21 polypeptide fused with the human Fc fragment at the N-terminus (Fc-FGF21), wild type (from UniProt Q9NSA1) 176E-A”, the ratio to parent was 0.5.

On to “mature human FGF21 polypeptide fused with the human Fc fragment at the N-terminus (Fc-FGF21), wild type (from UniProt Q9NSA1) 190S-R”, for which the ratio to parent was determined as 6.5.

Regarding “mature human FGF21 polypeptide fused with the human Fc fragment at the N-terminus (Fc-FGF21), wild type (from UniProt Q9NSA1) 167L-A”, the ratio to parent came out at 0.4.

Consider “mature human FGF21 polypeptide fused with the human Fc fragment at the N-terminus (Fc-FGF21), wild type (from UniProt Q9NSA1) 199P-A”, for which the ratio to parent was found to be 1.

With “mature human FGF21 polypeptide fused with the human Fc fragment at the N-terminus (Fc-FGF21), wild type (from UniProt Q9NSA1) 184Q-R”, the ratio to parent came to 1.8.

As to “mature human FGF21 polypeptide fused with the human Fc fragment at the N-terminus (Fc-FGF21), wild type (from UniProt Q9NSA1) 169G-R”, the ratio to parent amounted to 2.2.

On to “mature human FGF21 polypeptide fused with the human Fc fragment at the N-terminus (Fc-FGF21), wild type (from UniProt Q9NSA1) 183P-A”, for which the ratio to parent was 0.8.

For the substance “mature human FGF21 polypeptide fused with the human Fc fragment at the N-terminus (Fc-FGF21), wild type (from UniProt Q9NSA1) 197V-A”, the ratio to parent was found to be 90.

For the substance “mature human FGF21 polypeptide fused with the human Fc fragment at the N-terminus (Fc-FGF21), wild type (from UniProt Q9NSA1) 173A-R”, the ratio to parent was found to be 0.6.

For “mature human FGF21 polypeptide fused with the human Fc fragment at the N-terminus (Fc-FGF21), wild type (from UniProt Q9NSA1) 185P-R”, the ratio to parent is 1.6.

On to “mature human FGF21 polypeptide fused with the human Fc fragment at the N-terminus (Fc-FGF21), wild type (from UniProt Q9NSA1) 167L-R”, for which the ratio to parent is 1.

“mature human FGF21 polypeptide fused with the human Fc fragment at the N-terminus (Fc-FGF21), wild type (from UniProt Q9NSA1) 164F-A”: the ratio to parent is 0.8.

As for “mature human FGF21 polypeptide fused with the human Fc fragment at the N-terminus (Fc-FGF21), wild type (from UniProt Q9NSA1) 170L-R”, the ratio to parent came out at 1.

“mature human FGF21 polypeptide fused with the human Fc fragment at the N-terminus (Fc-FGF21), wild type (from UniProt Q9NSA1) 166P-R”: the ratio to parent worked out at 2.6.

Take “mature human FGF21 polypeptide fused with the human Fc fragment at the N-terminus (Fc-FGF21), wild type (from UniProt Q9NSA1) 174P-R”: the ratio to parent is 1.3.

For “mature human FGF21 polypeptide fused with the human Fc fragment at the N-terminus (Fc-FGF21), wild type (from UniProt Q9NSA1) 201Q-R”, the ratio to parent was 1.

For the substance “mature human FGF21 polypeptide fused with the human Fc fragment at the N-terminus (Fc-FGF21), wild type (from UniProt Q9NSA1) 179G-A”, the ratio to parent amounted to 1.3.

Take “mature human FGF21 polypeptide fused with the human Fc fragment at the N-terminus (Fc-FGF21), wild type (from UniProt Q9NSA1) 171P-R”: the ratio to parent was 1.2.

As to “mature human FGF21 polypeptide fused with the human Fc fragment at the N-terminus (Fc-FGF21), wild type (from UniProt Q9NSA1) 178P-R”, the ratio to parent came out at 1.2.

“mature human FGF21 polypeptide fused with the human Fc fragment at the N-terminus (Fc-FGF21), wild type (from UniProt Q9NSA1) 189G-A”: the ratio to parent turned out to be 0.8.

Turning to “mature human FGF21 polypeptide fused with the human Fc fragment at the N-terminus (Fc-FGF21), wild type (from UniProt Q9NSA1) 187D-R”, the ratio to parent was determined as 6.

Take “mature human FGF21 polypeptide fused with the human Fc fragment at the N-terminus (Fc-FGF21), wild type (from UniProt Q9NSA1) 177P-A”: the ratio to parent worked out at 1.

As for “mature human FGF21 polypeptide fused with the human Fc fragment at the N-terminus (Fc-FGF21), wild type (from UniProt Q9NSA1) 202G-R”, the ratio to parent came out at 4.8.

For “mature human FGF21 polypeptide fused with the human Fc fragment at the N-terminus (Fc-FGF21), wild type (from UniProt Q9NSA1) 199P-R”, the ratio to parent amounted to 1.2.

Turning to “mature human FGF21 polypeptide fused with the human Fc fragment at the N-terminus (Fc-FGF21), wild type (from UniProt Q9NSA1) 168P-R”, the ratio to parent came to 1.2.

Regarding “mature human FGF21 polypeptide fused with the human Fc fragment at the N-terminus (Fc-FGF21), wild type (from UniProt Q9NSA1) 185P-A”, the ratio to parent is 1.3.

With “mature human FGF21 polypeptide fused with the human Fc fragment at the N-terminus (Fc-FGF21), wild type (from UniProt Q9NSA1) 198G-R”, the ratio to parent came to 0.5.

With “mature human FGF21 polypeptide fused with the human Fc fragment at the N-terminus (Fc-FGF21), wild type (from UniProt Q9NSA1) 177P-R”, the ratio to parent amounted to 1.2.

Turning to “mature human FGF21 polypeptide fused with the human Fc fragment at the N-terminus (Fc-FGF21), wild type (from UniProt Q9NSA1) 200S-R”, the ratio to parent stood at 2.

“mature human FGF21 polypeptide fused with the human Fc fragment at the N-terminus (Fc-FGF21), wild type (from UniProt Q9NSA1) 189G-R”: the ratio to parent came to 1.2.

For the substance “mature human FGF21 polypeptide fused with the human Fc fragment at the N-terminus (Fc-FGF21), wild type (from UniProt Q9NSA1) 208A-R”, the ratio to parent was 9.

As to “mature human FGF21 polypeptide fused with the human Fc fragment at the N-terminus (Fc-FGF21), wild type (from UniProt Q9NSA1) 182A-R”, the ratio to parent stood at 1.4.

For the substance “mature human FGF21 polypeptide fused with the human Fc fragment at the N-terminus (Fc-FGF21), wild type (from UniProt Q9NSA1) 190S-A”, the ratio to parent came out at 15.

As for “mature human FGF21 polypeptide fused with the human Fc fragment at the N-terminus (Fc-FGF21), wild type (from UniProt Q9NSA1) 170L-A”, the ratio to parent came to 1.

For “mature human FGF21 polypeptide fused with the human Fc fragment at the N-terminus (Fc-FGF21), wild type (from UniProt Q9NSA1) 179G-R”, the ratio to parent was determined as 1.

In the case of “mature human FGF21 polypeptide fused with the human Fc fragment at the N-terminus (Fc-FGF21), wild type (from UniProt Q9NSA1) 172P-A”, the ratio to parent worked out at 0.5.

As to “mature human FGF21 polypeptide fused with the human Fc fragment at the N-terminus (Fc-FGF21), wild type (from UniProt Q9NSA1) 188V-R”, the ratio to parent came out at 950.

Turning to “mature human FGF21 polypeptide fused with the human Fc fragment at the N-terminus (Fc-FGF21), wild type (from UniProt Q9NSA1) 181L-A”, the ratio to parent worked out at 0.5.

“mature human FGF21 polypeptide fused with the human Fc fragment at the N-terminus (Fc-FGF21), wild type (from UniProt Q9NSA1) 198G-A”: the ratio to parent was 0.5.

Regarding “mature human FGF21 polypeptide fused with the human Fc fragment at the N-terminus (Fc-FGF21), wild type (from UniProt Q9NSA1) 163R-A”, the ratio to parent is 0.9.

As to “mature human FGF21 polypeptide fused with the human Fc fragment at the N-terminus (Fc-FGF21), wild type (from UniProt Q9NSA1) 203R-A”, the ratio to parent was determined as 2.

With “mature human FGF21 polypeptide fused with the human Fc fragment at the N-terminus (Fc-FGF21), wild type (from UniProt Q9NSA1) 175P-A”, the ratio to parent is 0.5.
